Experimental data as given in patent US20250152742A1, “COMPOSITIONS AND METHODS FOR NEUROLOGICAL DISEASES” (Trames Bio, Inc., priority 2022, published 2025).
Positions count from the first letter of the chain named. In names and notes the source's numbering stands.

System: engineered chimeric receptor SEQ ID NO: 33 and its mutants (human α7-nAChR ligand binding domain / human GlyRα1 ion pore domain) in Lenti-X 293T cells
Experiment: YFP fluorescence quenching anion reporter plate reader assay (percent quench, EC50)
Type: cell-based
Conditions: for YFP fluorescence quenching using CNL001 (percent quench): receptor named in row; for YFP fluorescence quenching using Facinicline, 30 nM fac: ligand Facinicline 30 nM; for YFP fluorescence quenching using Facinicline, 300 nM fac: ligand Facinicline 300 nM; for YFP fluorescence quenching using Facinicline, 30 uM fac: ligand Facinicline 30 uM; for YFP fluorescence quenching using TC-6987, 1 uM tc6987: ligand TC-6987 1 uM; for YFP fluorescence quenching using TC-6987, 10 uM tc6987: ligand TC-6987 10 uM; for YFP fluorescence quenching using TC-6987, 500 uM tc6987: ligand TC-6987 500 uM; for YFP fluorescence quenching using Varenicline, 3 nM var: ligand Varenicline 3 nM; for YFP fluorescence quenching using Varenicline, 30 nM var: ligand Varenicline 30 nM; for YFP fluorescence quenching using Varenicline, 300 nM var: ligand Varenicline 300 nM; for YFP fluorescence quenching using Varenicline, 500 nM var: ligand Varenicline 500 nM; for YFP fluorescence quenching using Varenicline, 1 uM var: ligand Varenicline 1 uM
Procedure, shortened: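 Lenti-X 293T cells co-expressing an anion-quenchable YFP were transiently transfected with receptor DNA, then ligand was added in NaI-substituted buffer (pH 7.2) after 30 min at 37 °C. Fluorescence was read about 2 min; percent quench = mean of last 10 s over 15 s pre-ligand baseline.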

[1] = 1 nM CNL001, first column so headed
[2] = 1 nM CNL001, second column so headed
[3] = 3 nM brd (TC-5619/Bradanicline)
[4] = 10 nM CNL001, first column so headed
[5] = 10 nM CNL001, second column so headed
[6] = 30 nM brd (TC-5619/Bradanicline)
[7] = 50 nM CNL001, first column so headed
[8] = 50 nM CNL001, second column so headed
[9] = 100 nM CNL001, first column so headed
[10] = 100 nM CNL001, second column so headed
[11] = 300 nM brd (TC-5619/Bradanicline)
[12] = 1 uM CNL001, first column so headed
[13] = 1 uM CNL001, second column so headed

B1: CODA377: engineered receptor: S172D in SEQ ID NO: 33 (protein)
chain: MRCSPGGVWLALAASLLHVSLQGEFQRKLYKELVKNYNPLERPVANDSQPLTVYFSLSLLQIMDVDEKNQVLTTNIWLQMSWTDHYLQWNVSEYPGVKTVRFPDGQIWKPDILLYNSADERFDATFHTNVLVNSSGHCQYLPPGIFKSSCPMDLKNFPMDVQTCKLKFGSWDYGGWSLDLQMQEADISGYIPNGEWDLVGIPGKRSERFYECCKEPYPDVTFTVTMRRRMGYYLIQMYIPSLLIVILSWISFWINMDAAPARVGLGITTVLTMTTQSSGSRASLPKVSYVKAIDIWMAVCLLFVFSALLEYAAVNFVSRQHKELLRFRRKRRHHKSPMLNLFQEDEAGEGRFNFSAYGMGPACLQAKDGISVKGANNSNTTNPPPAPSKSPEEMRKLFIQRAKKIDKISRIGFPMAFLIFNMFYWIIYKIVRREDVHNQ
modifications: synthetic sequence of chimeric LGIC
YFP fluorescence quenching using CNL001 (percent quench) [1]: 67.544%
YFP fluorescence quenching using CNL001 (percent quench) [2]: 74.209%
YFP fluorescence quenching using TC-5619/Bradanicline (percent quench) (1 nM brd (TC-5619/Bradanicline)): 0.77%
YFP fluorescence quenching using TC-5619/Bradanicline (percent quench) [3]: −4.59%
YFP fluorescence quenching using CNL001 (percent quench) [4]: 74.346%
YFP fluorescence quenching using CNL001 (percent quench) [5]: 75.816%
YFP fluorescence quenching using TC-5619/Bradanicline (percent quench) (10 nM brd (TC-5619/Bradanicline)): 0.06%
YFP fluorescence quenching using TC-6683 (percent quench) (30 nM TC-6683): −20.23%
YFP fluorescence quenching using TC-5619/Bradanicline (percent quench) [6]: −10.48%
YFP fluorescence quenching using CNL001 (percent quench) [7]: 77.068%
YFP fluorescence quenching using CNL001 (percent quench) [8]: 76.99%
YFP fluorescence quenching using ABT-126 (percent quench) (50 nM abt (ABT-126)): −1.53%
YFP fluorescence quenching using CNL001 (percent quench) [9]: 79.352%
YFP fluorescence quenching using CNL001 (percent quench) [10]: 77.865%
YFP fluorescence quenching (percent quench) (100 nM CNL002): 59.35%
YFP fluorescence quenching using ABT-126 (percent quench) (100 nM abt (ABT-126)): 18.18%
YFP fluorescence quenching using AZD-0328 (percent quench) (100 nM azd0328): 65.04%
YFP fluorescence quenching using TC-5619/Bradanicline (percent quench) (100 nM brd (TC-5619/Bradanicline)): 0.25%
YFP fluorescence quenching using TC-6683 (percent quench) (300 nM TC-6683): −13.94%
YFP fluorescence quenching using ABT-126 (percent quench) (300 nM abt (ABT-126)): 59.15%
YFP fluorescence quenching using AZD-0328 (percent quench) (300 nM azd0328): 81.73%
YFP fluorescence quenching using TC-5619/Bradanicline (percent quench) [11]: −10.61%
YFP fluorescence quenching using CNL001 (percent quench) [12]: 80.272%
YFP fluorescence quenching using CNL001 (percent quench) [13]: 79.432%
YFP fluorescence quenching (percent quench) (1 uM CNL002): 79.26%
YFP fluorescence quenching using ABT-126 (percent quench) (1 uM abt (ABT-126)): 72.28%
YFP fluorescence quenching using TC-5619/Bradanicline (percent quench) (1 uM brd (TC-5619/Bradanicline)): 3.82%
YFP fluorescence quenching using TC-6683 (percent quench) (3 uM TC-6683): −14.17%
YFP fluorescence quenching (percent quench) (10 uM ach (acetylcholine)): −3.19%
YFP fluorescence quenching (percent quench) (30 uM CNL002): 79.96%
YFP fluorescence quenching using TC-6683 (percent quench) (30 uM TC-6683): 1.86%
YFP fluorescence quenching using AZD-0328 (percent quench) (30 uM azd0328): 82.3%
YFP fluorescence quenching using TC-6683 (percent quench) (100 uM TC-6683): 43.61%
YFP fluorescence quenching (percent quench) (100 uM ach (acetylcholine)): 0.07%
YFP fluorescence quenching (percent quench) (1 mM ach (acetylcholine)): 71.7%
YFP fluorescence quenching (percent quench) (3 mM ach (acetylcholine)): 76.95%
YFP fluorescence quenching using Facinicline, 30 nM fac: 4.93
YFP fluorescence quenching using Facinicline, 300 nM fac: 84.13
YFP fluorescence quenching using Facinicline, 10 uM fac (ligand Facinicline 10 uM): 66.96
YFP fluorescence quenching using Facinicline, 30 uM fac: 85.29
YFP fluorescence quenching using TC-6987, 1 uM tc6987: −9.74
YFP fluorescence quenching using TC-6987, 3 uM tc6987 (ligand TC-6987 3 uM): −14.04
YFP fluorescence quenching using TC-6987, 5 uM tc6987 (ligand TC-6987 5 uM): −0.95
YFP fluorescence quenching using TC-6987, 10 uM tc6987: −7.41
YFP fluorescence quenching using TC-6987, 30 uM tc6987 (ligand TC-6987 30 uM): −16.12
YFP fluorescence quenching using TC-6987, 50 uM tc6987 (ligand TC-6987 50 uM): −12.79
YFP fluorescence quenching using TC-6987, 100 uM tc6987 (ligand TC-6987 100 uM): −11.77
YFP fluorescence quenching using TC-6987, 300 uM tc6987 (ligand TC-6987 300 uM): −19.68
YFP fluorescence quenching using TC-6987, 500 uM tc6987: −17.02
YFP fluorescence quenching using Varenicline, 3 nM var (first column): −3.433
YFP fluorescence quenching using Varenicline, 3 nM var (second column): −5.737
YFP fluorescence quenching using Varenicline, 30 nM var (first column): −5.319
YFP fluorescence quenching using Varenicline, 30 nM var (second column): −6.175
YFP fluorescence quenching using Varenicline, 300 nM var (first column): −4.135
YFP fluorescence quenching using Varenicline, 300 nM var (second column): −8.614
YFP fluorescence quenching using Varenicline, 500 nM var (first column): −6.062
YFP fluorescence quenching using Varenicline, 500 nM var (second column): −6.125
YFP fluorescence quenching using Varenicline, 1 uM var (first column): −14.134
YFP fluorescence quenching using Varenicline, 1 uM var (second column): −15.373

B2: CODA405: engineered receptor: Y210V in SEQ ID NO: 33 (protein)
chain: B1 chain with D172S, Y210V
modifications: synthetic sequence of chimeric LGIC
YFP fluorescence quenching using CNL001 (percent quench) [1]: −16.246%
YFP fluorescence quenching using CNL001 (percent quench) [2]: −4.217%
YFP fluorescence quenching using TC-5619/Bradanicline (percent quench) [3]: 9.92%
YFP fluorescence quenching using CNL001 (percent quench) [4]: −6.142%
YFP fluorescence quenching using CNL001 (percent quench) [5]: −10.003%
YFP fluorescence quenching using TC-5619/Bradanicline (percent quench) [6]: 4.37%
YFP fluorescence quenching using CNL001 (percent quench) [7]: −11.054%
YFP fluorescence quenching using CNL001 (percent quench) [8]: −10.06%
YFP fluorescence quenching using ABT-126 (percent quench) (50 nM abt (ABT-126)): −2.9%
YFP fluorescence quenching using CNL001 (percent quench) [9]: −3.832%
YFP fluorescence quenching using CNL001 (percent quench) [10]: −3.784%
YFP fluorescence quenching (percent quench) (100 nM CNL002): −14.3%
YFP fluorescence quenching using ABT-126 (percent quench) (100 nM abt (ABT-126)): −2.06%
YFP fluorescence quenching using AZD-0328 (percent quench) (100 nM azd0328): −8.13%
YFP fluorescence quenching using ABT-126 (percent quench) (300 nM abt (ABT-126)): −0.19%
YFP fluorescence quenching using AZD-0328 (percent quench) (300 nM azd0328): −3.35%
YFP fluorescence quenching using TC-5619/Bradanicline (percent quench) [11]: 59%
YFP fluorescence quenching using CNL001 (percent quench) [12]: 1.129%
YFP fluorescence quenching using CNL001 (percent quench) [13]: 7.1%
YFP fluorescence quenching (percent quench) (1 uM CNL002): −7.56%
YFP fluorescence quenching using ABT-126 (percent quench) (1 uM abt (ABT-126)): −3.64%
YFP fluorescence quenching (percent quench) (10 uM ach (acetylcholine)): −6.31%
YFP fluorescence quenching (percent quench) (30 uM CNL002): −2.02%
YFP fluorescence quenching using AZD-0328 (percent quench) (30 uM azd0328): −2.86%
YFP fluorescence quenching (percent quench) (100 uM ach (acetylcholine)): −14.48%
YFP fluorescence quenching (percent quench) (1 mM ach (acetylcholine)): −2.82%
YFP fluorescence quenching (percent quench) (3 mM ach (acetylcholine)): 1.06%
YFP fluorescence quenching using Facinicline, 30 nM fac: −26.25
YFP fluorescence quenching using Facinicline, 300 nM fac: −23.52
YFP fluorescence quenching using Facinicline, 30 uM fac: 0.83
YFP fluorescence quenching using TC-6987, 1 uM tc6987: −22.63
YFP fluorescence quenching using TC-6987, 10 uM tc6987: −23.03
YFP fluorescence quenching using TC-6987, 500 uM tc6987: −40.88
YFP fluorescence quenching using Varenicline, 3 nM var (first column): 7.317
YFP fluorescence quenching using Varenicline, 3 nM var (second column): 7.643
YFP fluorescence quenching using Varenicline, 30 nM var (first column): 9.457
YFP fluorescence quenching using Varenicline, 30 nM var (second column): 9.134
YFP fluorescence quenching using Varenicline, 300 nM var (first column): 15.503
YFP fluorescence quenching using Varenicline, 300 nM var (second column): 11.954
YFP fluorescence quenching using Varenicline, 500 nM var (first column): 13.427
YFP fluorescence quenching using Varenicline, 500 nM var (second column): 10.784
YFP fluorescence quenching using Varenicline, 1 uM var (first column): 9.032
YFP fluorescence quenching using Varenicline, 1 uM var (second column): 11.591
